In publication PMC2754851:
Read-outs that look alike come from different tables or passages of the source.

Columns and labels:
Assay in all cases: pull-down
[1] = molecular target: Doc1-4A APC/C (S. cerevisiae) (UniProt P53886)
[2] = molecular target: Cdc27-A2 APC/C (APC/C with Cdc27 L579A) (S. cerevisiae) (UniProt P53886)
[3] = molecular target: Doc1-4A APC/C (S. cerevisiae) (UniProt P53886); remark: listed apart in the source

Doc1-4A APC/C (S. cerevisiae), sequence (P53886 whole entry, looked up): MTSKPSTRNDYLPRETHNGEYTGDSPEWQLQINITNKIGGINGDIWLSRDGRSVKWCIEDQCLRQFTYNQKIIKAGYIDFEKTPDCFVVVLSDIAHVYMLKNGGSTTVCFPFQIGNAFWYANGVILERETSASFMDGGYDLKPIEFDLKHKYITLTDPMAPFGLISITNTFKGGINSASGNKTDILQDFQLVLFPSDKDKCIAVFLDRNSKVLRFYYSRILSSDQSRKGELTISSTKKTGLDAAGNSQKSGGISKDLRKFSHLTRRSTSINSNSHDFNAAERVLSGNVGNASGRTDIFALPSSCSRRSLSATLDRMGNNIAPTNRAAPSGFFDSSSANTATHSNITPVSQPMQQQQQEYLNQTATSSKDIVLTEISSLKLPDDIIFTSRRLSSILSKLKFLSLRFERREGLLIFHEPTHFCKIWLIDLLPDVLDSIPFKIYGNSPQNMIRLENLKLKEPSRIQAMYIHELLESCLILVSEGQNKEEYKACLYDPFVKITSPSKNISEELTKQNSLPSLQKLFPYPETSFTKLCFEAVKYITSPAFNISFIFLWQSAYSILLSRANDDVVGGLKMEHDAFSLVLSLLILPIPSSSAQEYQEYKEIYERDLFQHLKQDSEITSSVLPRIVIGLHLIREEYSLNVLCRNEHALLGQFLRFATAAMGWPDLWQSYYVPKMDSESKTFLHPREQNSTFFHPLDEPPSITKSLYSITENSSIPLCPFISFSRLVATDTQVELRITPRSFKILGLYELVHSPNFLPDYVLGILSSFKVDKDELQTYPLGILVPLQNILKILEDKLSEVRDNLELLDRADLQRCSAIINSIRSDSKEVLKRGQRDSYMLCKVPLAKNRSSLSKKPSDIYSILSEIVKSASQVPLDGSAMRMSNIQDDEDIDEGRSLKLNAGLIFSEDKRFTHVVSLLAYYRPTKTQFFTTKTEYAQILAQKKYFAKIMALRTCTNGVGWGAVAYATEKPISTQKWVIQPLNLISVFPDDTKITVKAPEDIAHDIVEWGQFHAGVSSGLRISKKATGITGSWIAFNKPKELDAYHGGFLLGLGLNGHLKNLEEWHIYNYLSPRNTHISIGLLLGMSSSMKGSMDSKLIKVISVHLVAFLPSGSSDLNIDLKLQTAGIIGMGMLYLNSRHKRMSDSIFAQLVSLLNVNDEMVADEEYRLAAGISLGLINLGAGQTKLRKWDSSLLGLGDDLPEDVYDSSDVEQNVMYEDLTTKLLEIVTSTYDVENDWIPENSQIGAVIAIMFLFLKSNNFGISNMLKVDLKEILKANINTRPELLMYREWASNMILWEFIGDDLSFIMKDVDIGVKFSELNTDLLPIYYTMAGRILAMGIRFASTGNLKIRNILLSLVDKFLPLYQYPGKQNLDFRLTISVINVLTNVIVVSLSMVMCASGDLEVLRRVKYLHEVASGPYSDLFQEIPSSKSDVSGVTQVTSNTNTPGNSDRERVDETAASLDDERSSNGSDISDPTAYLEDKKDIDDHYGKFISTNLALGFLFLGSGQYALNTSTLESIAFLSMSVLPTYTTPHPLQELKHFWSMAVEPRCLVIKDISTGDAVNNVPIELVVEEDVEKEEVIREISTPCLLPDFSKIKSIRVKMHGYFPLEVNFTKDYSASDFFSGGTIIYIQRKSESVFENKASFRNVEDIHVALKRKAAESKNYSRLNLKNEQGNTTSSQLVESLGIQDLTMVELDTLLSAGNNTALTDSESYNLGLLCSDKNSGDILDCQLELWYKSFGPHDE

half-time of dissociation [1]: 22 min | half-time of dissociation [2]: 10 min | koff [2]: 0.0011 s⁻¹ | half-time of dissociation [3]: 20 min
B1: in vitro translated Cdh1 (natural protein)
chain: MSTNLNPFMNNTPSSSPLKGSESKRVSKRPISSSSSASLLSSPSRRSRPSTVYGDRYIPSRTDIDFNSIVSISSMASVPALNPSSTEDQVEYQKERQAHETYNTLLKNELFGEMLSKDTVGSESSIDRIKNTRPSTRGNVHAENTTRHGYELERVSTPPPEAAGLEEFSPHSTPVTPRRLFTSQQDEITRPSSNSVRGASLLTYQQRKGRRLSAASLLQSQFFDSMSPVRPDSKQLLLSPGKQFRQIAKVPYRVLDAPSLADDFYYSLIDWSSTDVLAVALGKSIFLTDNNTGDVVHLCDTENEYTSLSWIGAGSHLAVGQANGLVEIYDVMKRKCIRTLSGHIDRVACLSWNNHVLTSGSRDHRILHRDVRMPDPFFETIESHTQEVCGLKWNVADNKLASGGNDNVVHVYEGTSKSPILTFDEHKAAVKAMAWSPHKRGVLATGGGTADRRLKIWNVNTSIKMSDIDSGSQICNMVWSKNTNELVTSHGYSKYNLTLWDCNSMDPIAILKGHSFRVLHLTLSNDGTTVVSGAGDETLRYWKLFDKPKAKVQPNSLIFDAFNQIR
modifications: 35S label
